Reference: patent US20250154240A1, “ANTI-HUMAN CXCL1 ANTIBODY” (CHIOME BIOSCIENCE INC., priority 2022, published 2025)

Assays:
[1] = tested on: migration of HuCXCR2-expressing cells toward HuCXCL1; test: Migration assay (Boyden chamber chemotaxis) of HuCXCR2-expressing cells toward HuCXCL1; type: cell-based, human; conditions: HuCXCL1 200 ng per ml in lower chamber
Method: The 80 clones with neutralizing activity against HuCXCL1 were evaluated for their inhibitory activity against the migration of HuCXCR2-expressing cells toward HuCXCL1.
Cell chemotaxis was measured by Boyden chamber assay, and QCM Chemoraxis Cell Migration Assay (Sigma-Aldrich Corporation) was purchased and used as an assay kit. AequoScrenn/CXCR2 cells were used as HuCXCR2-expressing cells. An isotype control antibody and a goat anti-HuCXCL1 polyclonal antibody (hereinafter referred to as AF275) were purchased from R&D Systems and used.
The HuCXCR2-expressing cells were cultured overnight at 37° C. in a serum-free culture medium, and then suspended in the assay buffer and adjusted to 2×10^6 cells per ml. The upper chamber of a Boyden chamber was filled with the HuCXCR2-expressing cell suspension, while the lower chamber was filled with the assay buffer alone or a solution containing HuCXCL1 in an amount of 200 ng per ml with or without a purified antibody, followed by incubation overnight at 37° C.
After incubation, the upper chamber was washed with PBS, placed into a new lower chamber containing a Cell Detachment Solution (Sigma-Aldrich Corporation), and then allowed to stand at 37° C. for 30 minutes to detach the migrated cells adhered to the bottom of the membrane in the upper chamber.
The migrated cell suspension was supplemented with 4× Lysis Buffer (Sigma-Aldrich Corporation) in a volume of 75 μL per well and allowed to stand at room temperature for 20 minutes, followed by measurement of fluorescence at an excitation wavelength of 480 nm and a fluorescence wavelength of 520 nm. The above about 80 clones were screened and evaluated for their inhibitory activity against the migration of CXCR2 cells.

CyCXCL1 [2] = test: Ca2+ Flux assay, CyCXCL1 neutralizing activity in AequoScreen/CXCR2 cells; type: cell-based, cynomolgus monkey; conditions: CyCXCL1 100 ng per ml; antibody 10 μg per ml
Method: For evaluation of neutralizing activity against CyCXCL1, CyCXCL1-induced changes in intracellular calcium ions in AequoScrenn/CXCR2 cells were measured as the luminescence intensity of aequorin.
AequoScrenn/CXCR2 cells were adjusted in the same manner as shown in [2-2] above. After CyCXCL1 was added to 96-well plates in an amount of 100 ng per ml, purified antibodies were each added in an amount of 10 μg per ml, and the plates were allowed to stand at room temperature for 30 minutes. To these plates, the AequoScree/CXCR2 cell suspension was added in a volume of 50 μL per well, immediately followed by measurement of luminescence intensity.
An antibody found to completely suppress CyCXCL1-induced luminescence from aequorin was determined to have cross-reactivity and indicated with “o” while an antibody found to not completely suppress luminescence from aequorin was indicated with “x” in Table A above.
Target sequence in this assay (as listed by the source): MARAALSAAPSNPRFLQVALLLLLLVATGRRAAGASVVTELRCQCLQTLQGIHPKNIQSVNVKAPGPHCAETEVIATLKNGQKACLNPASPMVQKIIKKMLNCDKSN
Target sequence in this assay (P25025 whole entry partner): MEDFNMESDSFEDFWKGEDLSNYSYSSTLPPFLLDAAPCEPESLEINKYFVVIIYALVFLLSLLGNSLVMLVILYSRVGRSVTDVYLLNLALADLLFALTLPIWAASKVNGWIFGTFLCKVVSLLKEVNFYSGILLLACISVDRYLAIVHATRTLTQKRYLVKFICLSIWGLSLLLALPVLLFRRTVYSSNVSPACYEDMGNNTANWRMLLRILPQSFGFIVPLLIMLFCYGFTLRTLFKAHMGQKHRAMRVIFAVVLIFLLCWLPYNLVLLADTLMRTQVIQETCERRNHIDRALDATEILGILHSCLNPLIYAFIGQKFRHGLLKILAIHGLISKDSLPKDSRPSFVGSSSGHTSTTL

CyCXCL1 [3] = test: CyCXCL1 binding activity ELISA; set-up: species or system cynomolgus monkey; conditions: absorbance to CyCXCL1 relative to absorbance to HuCXCL1
Method: Binding activity to cynomolgus monkey CXCL1 (CyCXCL1) was evaluated.
The same procedure as shown in [1-1] above was repeated to prepare a CyCXCL1 protein (antigen), except that the amino acid sequence of a HuCXCL1 protein was replaced with the amino acid sequence of a CyCXCL1 protein (Uniprot registration number: QUEAC3; SEQ ID NO: 82).
The evaluation of binding activity to CyCXCL1 was accomplished by ELISA assay. Absorbance was calculated in the same manner as shown in [2-1] above to evaluate antigen-binding activity, except that the protein immobilized on the plates was changed from a HuCXCL1 protein to a CyCXCL1 protein. An antibody whose absorbance to CyCXCL1 was 80% or more of its absorbance to HuCXCL1 was determined to have cross-reactivity and indicated with “o” while an antibody whose absorbance to CyCXCL1 was less than 80% of its absorbance to HuCXCL1 was indicated with “x” in Table A above.
Target sequence in this assay (as listed by the source): as the sequence (as listed by the source) above

Binding activity to CyCXCL1 ELISA (CyCXCL1 [3])	Molecule	CXCR2-expressing cell migration inhibitory activity Chemotaxis assay [1]	CyCXCL1 neutralizing activity Ca^2+ Flux assay (CyCXCL1 [2])
∘	5A-5E11: mouse monoclonal anti-HuCXCL1 antibody clone; VH SEQ ID NO: 17, VL SEQ ID NO: 21 (antibody, listed as Mus musculus, V domains shown) VH: QVQLQQSGAELVRPGSSVKISCKASGYAFSDYWMNWVKQRPGQGLEWIGQIYPGDGDTNYNGKFKGKGTLTADKSSSTAYMQLNSLTSEDSAVYFCARERDYDVAMDYWGQGTSVTVSS VL: DIQMTQSPSSLSASLGGKVTITCKASQDINKYIAWFQHKPGKGPRLVIHYTSILQPGIPSRFSGVGSGRDYSFSIRNLEPEDIATYYCLQYDNLPWTFGGGTKLEIK	∘	∘
∘	028-8-12: human antibody against CXCL1 from the human ADLib technique; VH SEQ ID NO: 25, VL SEQ ID NO: 29 (antibody, listed as Gallus gallus, V domains shown) VH: EVQLLESGGGLVQPGGSLRLSCAASGFTFSELSMSWVRQAPGKGLEWVSAISGSGGSTYYADSVKGRFTISRDNSKNTLYLQMNSLRAEDTAVYYCAREGGRLEPYYYYYAMDVWGQGTPVTVSS VL: DIQMTQSPSSLSASVGDRVTITCRASQSISDNLHWYQQKPGKAPKLLIYDASNLESGVPSRFSGSGSGTDFTLTINSLQPEDFATYYCQQYYSTPLTFGQGTKLEIK	∘	∘

The remaining lines, values behind:

Molecule	Binding activity to CyCXCL1 ELISA (CyCXCL1 [3])	CXCR2-expressing cell migration inhibitory activity Chemotaxis assay [1]	CyCXCL1 neutralizing activity Ca^2+ Flux assay (CyCXCL1 [2])
1A-7H10: mouse monoclonal anti-HuCXCL1 antibody clone; VH SEQ ID NO: 1, VL SEQ ID NO: 5 (antibody, listed as Mus musculus, V domains shown) VH: QVQLKESGPVLVAPSQSLSITCSVSGFSSTTYGVHWVRQPPGQGLEWLGVIWAGGSTNYNSALMSRLSISKDNSKSQVFLKMNSLQTDDTAMYYCATQYHYPFAYWGQGTLVTVSA VL: NIVMTQSPKSMSMSVGERVTLSCKASENVGIYVSWYQQKPEQSPKLMIYGASNRNTGVPDRFTGSGSATDFTLTISSVQAEDLADYYCGQSYSYPLTFGAGTKLELK	∘	∘	∘
4A-2F7: mouse monoclonal anti-HuCXCL1 antibody clone; VH SEQ ID NO: 9, VL SEQ ID NO: 13 (antibody, listed as Mus musculus, V domains shown) VH: QVTLKESGPGILKPSQTLSLTCSFSGFSLSTSGMGVDWIRQPSGKGLEWLAHIWWDDDKYYNPSLKSQLTISKDTSRNQVFLKITSVDTADTATYYCARSYGYDMDYYAMDYWGQGTSVTVSS VL: DIQMTQSPSSLSASLGERVSLTCRASQEISGYLSWLQQKPDGTIKRLIYAASTLDSGVPKRFSGSRSGSDYSLTISSLESEDFADYYCLQYASYPPWTFGGGTKLEIK	∘	∘	∘
